Data reported in the nanobody polyreactivity screen of Harvey et al. (2022).

Assay: yeast display, Sf9 membrane polyspecificity reagent, FACS + sequencing; frameworks hold sequencing errors
Summary of the method: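 Nanobodies came from a synthetic yeast display library in Saccharomyces cerevisiae BJ5465, induced with galactose for 36–48 hours and stained for 1 hour at 4 °C with 10% biotinylated, detergent-solubilized Sf9 membrane reagent. Cells were enriched on streptavidin microbeads and then FACS-sorted, with low and high (top ~1%) gates set on anti-HA fluorescence for expression and streptavidin fluorescence for reagent binding. Each polyreactivity label reflects the gate a clone came from. Genes were amplified by colony PCR, sequenced by MiSeq 2 × 250 and filtered by CDR length.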

Sequence	polyreactivity (PSR sort gate)
QVQLVESGGGLVQAGGSLRLSCAASGSTFGSYAMGWYRQAPGKERELVAAISGGGSTYYADSVKGRFTISRDNAKNTVYLQMNSLKPEDTAVYYCNAYWKYWRTNGPGTKYNYWGQGTQVTVSS	high polyreactivity
QVHLVESVGGLVQAGGSLRLSCAASGFILAVYVLGWYRQAPGKDRELVAAISWSGGSTYYADSVKGRFTISRDNAKNTVYLQMNSLKPEATAVYYCNTVAKSPVKYDYWGQGTQVTVSS	high polyreactivity
QVQLVESGGGLVQAGGSLRLSCAASGFIFYYNAMGWSRQAPGKERELVASISRDCGRTYYADSVKGRFTISRDNAKNTVYLQMNSLKPEDTAVYYCAKKRINSRKYDYWGQGPQVTVSS	low polyreactivity
QVQLVETGGGLVQAGGSLRLSCAASGSTFGYNGMGWYRQAPGKERELVAAISGGARTYADSVKGRFTISRDNAKNTVYLQMNSLIPEDTAVYYCAADSPVSVTADDGYWGLGTQVTVSS	low polyreactivity
QVQLVESGGGLVQAGGSLRLSSAASGRTFRGNAMGWYSQAPGKERELVAAIRWNGGSTYYADSVKGRFTISRDNAKNTVYLQMNSLKPEDTAVYYCAVSYWYSRYDYWGQGTQVTVSS	high polyreactivity
QVQLVESGGGLVQAGGSLRLSCAASGRILRFYAMGWYRQAPGKERELVATISRSGGSTYYAESVKGRVTISRDNAKNTVDLQMNSLKPEDTAVDYCNAKFKGVSYKMDYWGQGTQVTVSS	high polyreactivity
QVQLVESRGGLVQAGGSLRLRCAASGYIYYQYAMGWSRHAPGKETALVGAISLSGGMTYYADSVKGRFTISRDNAKNTVYLQMNSLKPEETGVYFCNAQSRVWCKVYYWGQGTQVTVSS	high polyreactivity
QVQLVESGGALVQAGGRLRLSCAASGSTFYTYAMGWYRHAPGKEREIVAAISWSDDSTYYADSVKGRFTISRDNAKNTVYLQMTSLKPEDTAVYYCAAEWGQRGGGGYYYWGQGTQVTVSS	low polyreactivity
QVQLVESGGGLVQAGGSLRLSCAASAGIFRYYAMGWYRQAPGKERELVAAITSSGTSTYYADSVKGRFTISRDNAKNTVYLQMNSLKPEDTAVYYCAATRTKRKFDYWGQGTQVTVSS	high polyreactivity
QVQLVESGGGLGQAGGSLRLSCAASGIIFWLYAMGWYRQAPGKDRELVAAITRSDGDTYYADSVKGRFTISRDNAKNTVYLQMNSLKPEDTAVYYCAARFTDYIHIWPFLLYNEVYYWGQGTQVTVSS	low polyreactivity
QVQLVESGGGLVQAGGSLRLSCAASGFTFYSKAMGWYRQAPGKERQLVATIRSDGRTNYADSVKGRFTISRDNAKNTVYLQMNSLNPEDTAVYYCNADYRNDWGTPLWYAYNYWGQGTQVTVSS	low polyreactivity
QVQLVESGGGLVQAGGSLRLSCAASGIIFAWNTMGWSRHPPGKERELVAAISSSGGSTYYADSVKGRFTISRDNAKNTVYLQMNSLKPEDTAVYYCAADGYHWIHEYDYWGQGTQVTVSS	low polyreactivity
QVQLVESGGGLVQAGGSLRLSCAASGFTFRLVNAMGWYRQAPGKERELVAGINSGDITYYADSVKGRFTISRDNAKNTVYLQMNSLKPEDTAVYYCAARVAWGYDYWGQGTQVTVSS	low polyreactivity
QDQLVDSGGGLVQAGGSLRLSCAASGIIFYRYAMGWYRQAPGKERELVATITASGGRTYYADSVKGRFTISRDNAKNTVYLQMNSLKPEDTAVYYCAAVSSYRLYSDYGYWRQGTQVTVSS	high polyreactivity
QVQLVESGGGLVQAGGSLRLSCAASGGIFGGNAMGWYRQAPGQERELVAAISRSSGSTYYADSVKGRFTISRDNAKNTVYLQMNSLKPEDSAVYYCNVEGYGRRFDYWGQGTQVTVSS	high polyreactivity
QVQLVESGGGLVQAGGSLRLSCAASGGIFRYYAMGWYRQAPGKERELVAAISRSTRTYYADSVKGRFTISRDNAKITVYLQMNSLKPEDTEVYYCAAKYVSRRYSRYNYWGQGTQVSVSS	high polyreactivity
QVQLVESGGGLVQAGGSLRLSCAASGFTFSFYSMGWSRQAPGKERELVAAITSRGTSTYYADSVKGRFTISRDNAKNTVYLQMNSLKPEDTAVYYCAKLLPRGQWPYDYWGQGTQVTVSS	high polyreactivity
QVQLVESWVGLVQAGGSLRLSCAASGNTFKYYDMGWYRQAPGKERELVATISRTAGSTYYADSVKGRFSISRDYAKNTVYLQMNSLKPEDTAVYYCNKDRGHPFKYDYWGQGTQVTVSS	low polyreactivity
QVQLVESGGGLVQAGGSLRLSCAASGRIFLGNTMGCYRQAPGKERELVAAISKRGGSTYYVDSVKGRFTISRDNAKNTVYLQMNSLKPEDTAVYYCNAGPLYSGVYSGYYWGQGTQVTVSS	high polyreactivity
QVQLVESGGGLVQAGGSLRLSCAASGITFFFNAMGWYRQAPGKERELVAAITSGAGSTYYADSVKGRFTISRDNAKITVYLQMNSLKPEDTAVYYCASEWSYGGMDYWGQGTQVNVSS	low polyreactivity
QVQLVESGGGLVQAGGSLRLSCAASGFIFAAYAMGWYRQAPGKERELVAAISYSGDRTYYADSVKGRFTISRDNAKNTVYLQMNSLKPEDTAVYYCDADARAYTYDYWGQGTQVTVSS	high polyreactivity
QVQLVESGGGLVQAGGSLLLSCSASGRTFAYNAMGLYRQAPGKEREWVASISSSDTSTYYADSVNGRFTISRDNAKNTVYLQMNSLKPVDTAVYYCAADGHPFKGVRYYYWGQGTQVTVSS	low polyreactivity

Sequence	polyreactivity (PSR sort gate)
HVQLQESGGVLVQAGGSLRLSCAASGSIFQATYMGWYRQAPGKEREFVASITYGSITNYADSVKGRFTIGRDNAKDTLYLQMNSLKPEDTAVYYCADDRHYIPAFHYWGQGTQVTVSS	low polyreactivity
QVQLVESGGGLVQAGGSLRLSCAASGLIFPYYAMGWYRQAPGKERELVATITRSGGNTYYADSVKGRFTISRDNAKNTVYLQMNSLKPEDTAVYYCATRYAGYRSYGYWGQGTQVTVLS	high polyreactivity
QVQLVESGGGLVQAGGSLRLSCAASGFIFYYYAMGWYRQAPGKERELVAGITATGGSTYYADSVKGRFTISRDNAKNTVYLQMNSLKPEDTAVYYCARGPSGTPNGNTPYGDNRYNSWGQGTQVTVSS	low polyreactivity
QVQLVESGGGLVHAGGSLRLSCAASGSTFARYAMGWYRPAPGKERELVAVIRSGGSTNYADSVKGRFTISRDNAKNTVYLQMNSLKPEDTAGAADQWTIHRWATYGYWGQGTQVTVSS	low polyreactivity
QVQLVESGGGLVQAGGSLRLSCAASGSTFYNAMGWYIQAPGKERELVAGISRNGGSTRYADSVKGRFTISRDNAKNTVYLQSHSQKPEDTAVSYCAAGYYDYGWDYANDYWGQGTQVTVSS	low polyreactivity
QVQLVESGGGLVQAGGSLRLSCAASGRIFTRYAMGWYRQAPGKERELVAAITYSGGSTYYADSVKGRFTISRDNAKNTVYLQMNSLKPEDTAVYYCAAPYIGFVRHRKMGYWGQGTQVTVSS	low polyreactivity
QDQLQESGGGLVQAGGSLRLSCAASGRIIYGYAMGWYRQAPGKERELVAAITATYYADSVKGRFTISRDNAKNTVYLQMNSLKPEDTAVYYCNAYLSPKQPLSPPDPTFEGGYWGQGTQVTVSS	low polyreactivity
QVQLVESGGGLVQAGGSLGLSCAASGRMFGYYTLGWYRQAPGKERELVAAITSSGGRTYYADSVKGRFTISRDYAKNTVYLQMNSLKPEDTAVYYCAADVEWTSRGSYYRYYYWGQGTQVTVSS	low polyreactivity
QVQLVESGGGLVQAGGSLLLSCAASGRILDFYDMGWYRQAPGKERELVAAITNSASTYYADSVKGRFTISRDNAKNTVYLQMNRLKPEDTAVYYCNADLYRGAYYGTYWSDWGYDYWGQGTQVTVSS	low polyreactivity
QVQIVESGGGLVQAGGILRLSCAASGITFTSYAMGWYRQAPGKEREFVAAISWSGDRTYYADSVKGRFTISRDNAKNTVYLQMICLKPEETAVYYCNAYIYFSAYDPDYYWGQGTQVTVSS	high polyreactivity
QVQLVESGGGLVQAGGSLRLSCAASGGTQVKYAMGWYRQAPGKERELVAAISRSTGNTYYADSVKGRFTISRDNAKNTVYLQMNSLKPEDTAVYYCAALKYTVGGKFGYWGQGTQVTVSS	high polyreactivity
QVQLVESGGGLVQAGGSLRLSCAASGRLFGAYGMGWYRQAPRKERELVAAISNGGRTSYADSVKGRFTISRDNAKNTVYLQMNSLKPEDTAVYYCAAVYWPWYGAYDYWGQGTQVTVSS	high polyreactivity
QVQLVESGGGLVQAGGSLRLSCAASGSTIYGYAMGWDRQAPGKERELVAAISYRGGSTYYADSVKGRFTISRDNAKNTVYLQMNSLKPEDTAVYYCAALGDDATSYGYWGQGTQVTVSS	high polyreactivity
QVQLEESGGGLVQAGGSLRLSCAASGSTFPGNALGWYRQAPGKERELVAAITSSGGSTDYADSVKGRFTISRDNAKNTVYLQMNSLKPEDTAVYYCAADGEDSLWTGYDYDYWGQGTQVTVSS	low polyreactivity
QVQLVESGGGLVQAGGSLRLSCAASGLTFYYYAMGWYRQAPGKERELVAAISGTGGSAYYADSVKGRFTISRDNAKNTVYLQMNSLKPEDTAVYYCAARYLRYKGTGATSAYDYWGQGTQVTVSS	high polyreactivity
QVQLVESGGGLVQAGGSLRLSCAASGSTFDIYAMGWYRQAPGKERELVAVISGGDGSTYYADSVKGRFTISRDNAKNTVYLQMNSLKPEDTAVYFCAADYISPGYWDGEYDCWGQGTQVTVSS	low polyreactivity
QVQLVESGGGLVQAGGSLRLSCAASGSTFEFYAMGWYRQAPGKERELVAAISSIGGSTYYADSVKGRFTISRDNAKNTVYLQMNSLKPEDTAVYYCAATSDSSLYVYWGQGTQVTVSS	low polyreactivity
QVQLVESGGGLVQAGGSLRLSCAASGFTFRRYAMGWYIQAPGKERELVAAIRSTGGSTYYADSVKGRFTISRDNAKNTVYLQMNSLKPEDTAVYYCNAGTPVRGYNYWGQGTQVTVSS	high polyreactivity
QVQLVESGGGLVQAGGSLRLSCAASGSIFGYYAMGWYRQAPGKERELVAVITSGATTNYADSVKGRFTISRDNAKNTVYLQMNSLKPEDTAVYYCAARPQVKRGRYGYWGQGTQVTVSS	low polyreactivity
QVQLVESGGGLVQAGGSLRLSCAASGFIFSTYTMGWYRQAPGKERELVAAISWRGGRTYYADSVKGRFTISRDNAKNTVYLQMNSLKPEDTAVYYCADYGTIRSSTAVEPLYNHWGQGTQVTVSS	high polyreactivity
QVQLVESGGGLVQAGGSLRLSCAASGRTFRTNVMGGYIQAPGKERELVADISKRGGSTYYADSVKGRFTISRDNAMNTVYVQINSQKPDDTAVYYCAADYSPYYYHQGDYWGQGTQVTVSS	high polyreactivity
